Laboratory results from patent publication US20220213196A1 (GRITSTONE BIO, published 2022).

How the values were obtained:
[1] = target: T1, HLA-A*01:01_… (HLA-PEPTIDE target G2), recombinant soluble complex (human, UniProt P04439-2 25-297; P61769 21-119, enzymatically biotinylated (BirA) for screening and functional assays); test: BLI (Octet), biotinylated pHLA on streptavidin sensors, Fab in solution
[2] = target: T2, HLA-A*02:01_… (HLA-PEPTIDE target G8), recombinant soluble complex (human, UniProt P04439 25-297 at identity 0.94); P61769 21-119, enzymatically biotinylated (BirA) for screening and functional assays); test: BLI Octet, pHLA on streptavidin sensor, 1:1 fit
T2 construct: Also crystallised with Fab G8-P1C11

[3] = target: T2, HLA-A*02:01_… (HLA-PEPTIDE target G8), …; test: BLI (Octet), biotinylated pHLA on streptavidin sensors; printed under the Fab sensorgrams, the sheet does not say which format or fit gave the bivalent value
[4] = target: HLA-A*01:01_… (G2) on K562 cells (human); test: flow cytometry, HLA-A*01:01-transduced K562 cells pulsed with target peptide, IgG titration
[5] = target: T3, HLA-B*35:01_… (HLA-PEPTIDE target G5), recombinant soluble complex (human, UniProt P01889 25-297 at identity 0.94); P61769 21-119, enzymatically biotinylated (BirA) for screening and functional assays); test: scFv PPE ELISA
[6] = target: T1, HLA-A*01:01_… (HLA-PEPTIDE target G2), …; test: BLI Octet, pHLA on streptavidin sensor, 1:1 fit
[7] = target: T2, HLA-A*02:01_… (HLA-PEPTIDE target G8), …; test: BLI (Octet), biotinylated pHLA on streptavidin sensors; printed under the Fab sensorgrams, the sheet does not say which format or fit gave the bivalent value [cont'd]
[8] = target: T4, HLA-A*01:01_… (G10) on cells (human); test: flow cytometry histogram, IgG at 30 µg/mL on HLA-A*01:01-transduced K562 cells pulsed with 50 µM …
T4 construct: also called G10-presenting K562 cells; Colo829

[9] = target: T3, HLA-B*35:01_… (HLA-PEPTIDE target G5), …; test: BLI Octet, pHLA on streptavidin sensor, 1:1 fit
[10] = target: T3, HLA-B*35:01_… (HLA-PEPTIDE target G5), …; test: BLI (Octet), biotinylated pHLA on streptavidin sensors; printed under the Fab sensorgrams, the sheet does not say which format or fit gave the bivalent value [cont'd]

B1: Fab G2-P1H11 (Fab, V domains shown)
VH: QVQLVQSGAEVKKPGASVKVSCKASGYTFTNYYMHWVRQAPGQGLEWMGMINPSGGGTSYAQKFQGRVTMTRDTSTSTVYMELSSLRSEDTAVYYCARGNPWELRLDYWGQGTLVTVSS
VL: DIQMTQSPSSLSASVGDRVTITCQASQDISNYLNWYQQKPGKAPKLLIYAASSLQSGVPSRFSGSGSGTDFTLTISSLQPEDFATYYCQQYYSYPFTFGPGTKVDIK
notes: Fab
[1]
  Kd: 46.1 nM
  koff: 0.0233 s⁻¹
  kon: 527000 M⁻¹ s⁻¹

B2: Fab G8-P1B03 (Fab, V domains shown)
VH: EVQLLESGGGLVQPGGSLRLSCAASGFTFSDYYMSWVRQAPGKGLEWVSGINWNGGSTGYADSVKGRFTISRDNSKNTLYLQMNSLRAEDTAVYYCARVEQGYDIYYYYYMDVWGKGTTVTVSS
VL: DIQMTQSPSSLSASVGDRVTITCRASQSISSYLNWYQQKPGKAPKLLIYKASSLESGVPSRFSGSGSGTDFTLTISSLQPEDFATYYCQQSYSAPYTFGPGTKVDIK
notes: Fab from HEK293
[2]
  Kd: 307 nM
  koff: 0.0511 s⁻¹
  kon: 167000 M⁻¹ s⁻¹
[3]
  Apparent KD (bivalent): 3.54 nM

B3: IgG G2-P1H11 (antibody, V domains shown)
VH: QVQLVQSGAEVKKPGASVKVSCKASGYTFTNYYMHWVRQAPGQGLEWMGMINPSGGGTSYAQKFQGRVTMTRDTSTSTVYMELSSLRSEDTAVYYCARGNPWELRLDYWGQGTLVTVSS
VL: DIQMTQSPSSLSASVGDRVTITCQASQDISNYLNWYQQKPGKAPKLLIYAASSLQSGVPSRFSGSGSGTDFTLTISSLQPEDFATYYCQQYYSYPFTFGPGTKVDIK
[4]
  binding result: binds

B4: scFv G5R4-P3G05 (scFv, V domains shown)
VH: QVQLVQSGAEVKKPGASVKVSCKASGYTFTNYYMHWVRQAPGQGLEWMGIINPSGGSTSYAQKFQGRVTMTRDTSTSTVYMELSSLRSEDTAVYYCARSWFGGFNYHYYGMDVWGQGTTVTVSS
VL: DIQMTQSPSSLSASVGDRVTITCQASEDISNHLNWYQQKPGKAPKLLIYDALSLQSGVPSRFSGSGSGTDFTLTISSLQPEDFATYYCQQANSFPFTFGPGTKVDIK
[5]
  fold binding to target pHLA over minipool of negative control pHLAs: ≥ 3 fold

B5: Fab G8-P4F05 (Fab, V domains shown)
VH: QVQLVQSGAEVKKPGASVKVSCKASGYTFSNMYLHWVRQAPGQGLEWMGWINPNTGDTNYAQTFQGRVTMTRDTSTSTVYMELSSLRSEDTAVYYCARGLYGDYFLYYGMDVWGQGTKVTVSS
VL: DIQMTQSPSSLSASVGDRVTITCRASQGISNYLAWYQQKPGKAPKLLIYAASTLQSGVPSRFSGSGSGTDFTLTISSLQPEDFATYYCQQSYSTPLTFGGGTKVEIK
notes: Fab from HEK293; also called R3G8-P4F05
[2]
  Kd: 984 nM
  koff: 0.063 s⁻¹
  kon: 64000 M⁻¹ s⁻¹
[3]
  Apparent KD (bivalent): 7.9 nM

B6: Fab G2-P2C06 (Fab, V domains shown)
VH: QVQLVQSGAEVKKPGASVKVSCKSSGYSFDSYVVNWVRQAPGQGLEWMGWINPNSGGTNYAQKFQGRVTMTRDTSTSTVYMELSSLRSEDTAVYYCARDWVLDYWGQGTLVTVSS
VL: DIQMTQSPSSLSASVGDRVTITCRASQTISSWLAWYQQKPGKAPKLLIYAASSLQSGVPSRFSGSGSGTDFTLTISSLQPEDFATYYCQQSYSTPFTFGPGTKVDIK
notes: Fab
[6]
  Kd: 30.6 nM
  koff: 0.0348 s⁻¹
  kon: 1.14e+06 M⁻¹ s⁻¹

B7: Fab G8-P5G08 (Fab, V domains shown)
VH: QVQLVQSGAEVKKPGASVKVSCKASGYTFTSNYMHWVRQAPGQGLEWMGWMNPNSGNTGYAQKFQGRVTMTRDTSTSTVYMELSSLRSEDTAVYYCARGLYGDYFLYYGMDVWGQGTTVTVSS
VL: not shown
notes: Fab from HEK293; also called R3G8-P5G08
[2]
  Kd: 530 nM
  koff: 0.0528 s⁻¹
  kon: 99700 M⁻¹ s⁻¹
[7]
  Apparent KD (bivalent): 6.65 nM

B8: scFv G5R4-P4B01 (scFv, V domains shown)
VH: QVQLVQSGAEVKKPGSSVKVSCKASGGTFSSYAISWVRQAPGQGLEWMGGIIPIVGTANYAQKFQGRVTITADESTSTAYMELSSLRSEDTAVYYCARGGSYYYYGMDVWGQGTTVTVSS
VL: not shown
[5]
  fold binding to target pHLA over minipool of negative control pHLAs: ≥ 3 fold

B9: IgG G10-P1B07 (antibody, V domains shown)
VH: QVQLVQSGAEVKKPGASVKVSCKASGYTFTSYYMHWVRQAPGQGLEWMGIIHPGGGTTSYAQKFQGRVTMTRDTSTSTVYMELSSLRSEDTAVYYCARDKVYGDGFDPWGQGTLVTVSS
VL: DIQMTQSPSSLSASVGDRVTITCRASQSISRWLAWYQQKPGKAPKLLIFDASRLQSGVPSRFSGSGSGTDFTLTISSLQPEDFATYYCQQAEAFPYTFGQGTKVEIK
notes: IgG; also called R3G10-P1B07
[8]
  binding result: binds

B10: Fab G5-P1C12 (Fab, V domains shown)
VH: QVQLVQSGAEVKKPGSSVKVSCKASGGTFSNFGVSWLRQAPGQGLEWMGGIIPILGTANYAQKFQGRVTITADESTSTAYMELSSLRSEDTAVYYCATPTNSGYYGPYYYYGMDVWGQGTTVTVSS
VL: DIQMTQSPSSLSASVGDRVTITCRASQSISSWLAWYQQKPGKAPKLLIYAASTLQSGVPSRFSGSGSGTDFTLTISSLQPEDFATYYCQQSYSIPLTFGGGTKVEIK
notes: Fab from HEK293
[9]
  Kd: 85.9 nM
  koff: 0.0158 s⁻¹
[10]
  Apparent KD (bivalent): 0.378 nM
